Data on four molecules can be found in patent US20090311253A1 (AbbVie / Abbott, published 2009).

In experiment [1] the target is T1, Recombinant Human IL-1β (human, UniProt P01584 117-269). Kind of experiment: cell-based or functional assay.
The target in experiment [2] is T2, Recombinant Human VEGF (human, UniProt P15692-4 27-191).
T2 construct: also called VEGF165
Put plainly: Biacore SPR. (In general: Surface plasmon resonance follows binding to a sensor surface in real time, without labels.)

Experiment [3] has as its target T1, Recombinant Human IL-1β. Put plainly: Biacore SPR.
The target in experiment [4] is T2, Recombinant Human VEGF. Kind of experiment: direct bind ELISA. (In general: ELISA stands for enzyme-linked immunosorbent assay.)
For experiment [5], the target named is T1, Recombinant Human IL-1β. Put plainly: direct bind ELISA.
For experiment [6], the target named is T3, Recombinant Human SOST (human, UniProt Q9BQB4 24-213).
T3 construct: also called SOST/His; Sclerostin
T3 sequence (looked up): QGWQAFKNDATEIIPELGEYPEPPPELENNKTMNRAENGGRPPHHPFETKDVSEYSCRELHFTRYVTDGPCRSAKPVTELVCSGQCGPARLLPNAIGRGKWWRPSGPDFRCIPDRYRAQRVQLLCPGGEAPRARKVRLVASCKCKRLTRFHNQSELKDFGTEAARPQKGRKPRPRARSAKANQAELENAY
Put plainly: Biacore SPR.

Experiment [7] addresses T3, Recombinant Human SOST. Kind of experiment: direct bind ELISA.
Experiment [8] addresses T4, Recombinant Human Dkk-1 (human, UniProt O94907 32-266).
T4 construct: also called DKK-1/His
T4 sequence (looked up): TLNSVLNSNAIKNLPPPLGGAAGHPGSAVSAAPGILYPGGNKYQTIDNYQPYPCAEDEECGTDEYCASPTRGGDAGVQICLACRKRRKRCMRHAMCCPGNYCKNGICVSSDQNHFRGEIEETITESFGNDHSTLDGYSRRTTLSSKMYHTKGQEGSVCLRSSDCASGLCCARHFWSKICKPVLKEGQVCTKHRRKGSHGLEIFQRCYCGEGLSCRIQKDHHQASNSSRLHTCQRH
Kind of experiment: Biacore SPR.

In experiment [9] the target is T4, Recombinant Human Dkk-1. Kind of experiment: direct bind ELISA.
Experiment [10] addresses T5, Recombinant Human IL-4 (human, UniProt P05112 25-153).
T5 sequence (looked up): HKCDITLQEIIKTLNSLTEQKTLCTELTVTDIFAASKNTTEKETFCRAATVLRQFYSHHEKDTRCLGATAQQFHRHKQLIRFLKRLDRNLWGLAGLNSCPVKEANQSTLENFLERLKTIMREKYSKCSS
Put plainly: cell-based or functional assay.

The target in experiment [11] is T6, Recombinant Human IL-13 (human, UniProt P35225 35-146, limits assumed). Kind of experiment: cell-based or functional assay.
T6 sequence (P35225 35-146 limits assumed): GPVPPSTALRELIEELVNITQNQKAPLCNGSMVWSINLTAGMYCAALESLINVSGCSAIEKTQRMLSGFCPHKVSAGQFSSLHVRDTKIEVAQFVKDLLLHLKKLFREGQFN
Experiment [12] concerns the target T5, Recombinant Human IL-4. Kind of experiment: Biacore SPR.
Experiment [13] concerns the target T6, Recombinant Human IL-13. Put plainly: Biacore SPR.
Experiment [14] deals with T5, Recombinant Human IL-4. Put plainly: direct bind ELISA.
Experiment [15] concerns the target T6, Recombinant Human IL-13. Kind of experiment: direct bind ELISA.

Where only a bound is given, the exact number is not on record here.

B1: DVD124 (bispecific antibody, human IgG1, kappa)
heavy: not shown
light: DIQMTQSPSSLSASVGDRVTITCSASQDISNYLNWYQQKPGKAPKVLIYFTSSLHSGVPSRFSGSGSGTDFTLTISSLQPEDFATYYCQQYSTVPWTFGQGTKVEIKRTVAAPEIVLTQSPDFQSVTPKEKVTITCRASQSIGSSLHWYQQKPDQSPKLLIKYASQSFSGVPSRFSGSGSGTDFTLTINSLEAEDAAAYYCHQSSSLPFTFGPGTKVDIKRTVAAPSVFIFPPSDEQLKSGTASVVCLLNNFYPREAKVQWKVDNALQSGNSQESVTEQDSKDSTYSLSSTLTLSKADYEKHKVYACEVTHQGLSSPVTKSFNRGEC
notes: outer AB014, inner AB032; vectors V1, V2
By Kd is commonly meant the equilibrium constant for the complex coming apart. The term koff denotes the first-order rate constant of dissociation. As usually defined, the kon is a measure of how fast the partners come together. One may read the EC50 as the concentration at which the effect is half-maximal. Take B1: the “IL-1β Neutralization Assay EC50 (MRC5 cells, hIL-8)” value in experiment [1] was determined as 3.63 nM. The dissociation constant (Kd) in [2] was 0.0467 nM; in experiment [3] it was 1.41 nM. Further, the koff turned out to be 4.03e-05 s⁻¹ in experiment [2] and 9.32e-05 s⁻¹ in experiment [3]. For the same molecule, the results for the kon in experiment [2] and in experiment [3] were 863000 M⁻¹ s⁻¹ and 66000 M⁻¹ s⁻¹, respectively. In addition, the half-maximal effective concentration (EC50) in [4] came out at 3.49 nM; in experiment [5] it was 459 nM.

B2: AB022 (antibody, human IgG1, kappa, V domains shown)
VH: EVQLQQSGPELVTPGASVKISCKASGYTFTDHYMSWVKQSHGKSLEWIGDINPYSGETTYNQKFKGTATLTVDKSSSIAYMEIRGLTSEDSAVYYCARDDYDASPFAYWGQGTLVTVSA
VL: DVQMIQSPSSLSASLGDIVTMTCQASQGTSINLNWFQQKPGKAPKLLIYGSSNLEDGVPSRFSGSRYGTDFTLTISSLEDEDLATYFCLQHSYLPYTFGGGTKLEIKR
notes: vectors V1 and V2
For B2, in experiment [6], the Kd was 0.0379 nM, the koff turned out to be 2.44e-05 s⁻¹ and the kon was 642000 M⁻¹ s⁻¹. Further, in experiment [7], the half-maximal effective concentration (EC50) came to 0.66 nM.

B3: AB023 (antibody, human IgG1, kappa, V domains shown)
VH: EVQLVESGGGLVQPANSLKLSCAASGFTFSDYAMAWVRQSPKKGLEWVATIIYDGSSTYYRDSVKGRFTISRDNAKSTLYLQMDSLRSEDTATYYCATGLGIATDYFDYWGQGVLVTVSS
VL: DIRMTQSPASLSASLGETVNIECLASEDIYSDLAWYQQKPGKSPQLLIYNANSLQNGVPSRFSGSGSGTQYSLKINSLQSEDVATYFCQQYNNYPPTFGGGTKLELKR
notes: vectors V1 and V2; also called anti-DKK parent antibody
As for B3, in experiment [8], the Kd was less than 0.0087 nM, the koff was 8.7e-05 s⁻¹ and the kon is greater than 1e+07 M⁻¹ s⁻¹. Further, in experiment [9], the half-maximal effective concentration (EC50) was determined as 6.83 nM.

B4: DVD267 (bispecific antibody, human IgG1, kappa)
heavy: not shown
light: DIQMTQSPSSLSASVGDRVTISCRASQDIRNYLNWYQQKPGKAPKLLIFYTSKLHSGVPSRFSGSGSGTDYTLTISSLQPEDIATYYCQQGLTPPLTFGGGTKVEIKRTVAAPDIVLTQSPSSLSASVGDRVTITCKASQSVDYDGDSYMNWYQQKPGKAPKLLIYAASNLESGIPSRFSGSGSGTDFTFTISSLQPEDIATYYCQQSNEDPPTFGQGTKVEIKRTVAAPSVFIFPPSDEQLKSGTASVVCLLNNFYPREAKVQWKVDNALQSGNSQESVTEQDSKDSTYSLSSTLTLSKADYEKHKVYACEVTHQGLSSPVTKSFNRGEC
notes: outer AB051, inner AB027; vectors V1, V2
Consider B4, for which the “IL-4 Neutralization Assay EC50 (A549 cells, hTARC)” value in experiment [10] came out at 0.09 nM. In experiment [11], the “IL-13 Neutralization Assay EC50 (A549 cells, hTARC)” value was found to be 0.09 nM. Also, in experiment [12], the Kd was 4.86 nM, the koff was determined as 0.000343 s⁻¹ and the kon was determined as 70600 M⁻¹ s⁻¹. For the same molecule, in [13], the Kd was 0.0497 nM, the off-rate (koff) was 8.69e-05 s⁻¹ and the association rate constant (kon) stood at 1.75e+06 M⁻¹ s⁻¹. Moreover, in [14], the 50% effective concentration (EC50) was found to be 748 nM. The EC50 in experiment [15] came out at 5.89 nM.
